Test results as given in publication PMC8093152, “Biosynthesis of the Tricyclic Aromatic Type II Polyketide Rishirilide: New Potential Third Ring Oxygenation after Three Cyclization Steps” (Molecular Biotechnology, 2021).

Columns and labels:
[1] = target: the molecule itself; experiment: crystal structure; apo RslO4, sitting drop vapor diffusion at 20 °C, 6% ethanol, 0.1 M ammonium acetate pH 5.5, 1.5 M phosphate pH 7.0; space group P3(2)21, two monomers in the asymmetric unit; 1.8 Å
[2] = target: the molecule itself; experiment: crystal structure; apo RslO1, sitting drop vapor diffusion at 20 °C, 0.1 M HEPES pH 7.5, 36% polyethylene glycol 600 (seeded); space group P2(1)2(1)2(1); 1.60 Å

Protein	stoichiometry N [1]	stoichiometry N [2]
RslO4 monooxygenase, C-terminal His-tag recombinant protein (enzyme, Streptomyces bottropensis Gö C4/4, RslO4, monooxygenase of the rishirilide (Rsl) gene cluster of Streptomyces bottropensis Gö C4/4; gene amplified from cosmid 4 and cloned between NdeI and XhoI of pET21a(+); rslO4 gene printed as 300 bps; predicted mass of the tagged protein 12.17 kDa; also called monooxygenase RslO4; cofactor-independent monooxygenase RslO4; source: E. coli BL21 (DE3) Star, pET21a(+), purified (Ni-NTA HisTrap FF, …)) MAVVFVNKLTLIGDAEEFESRYEAVGAFMETQPGLVRYSLVRSTKDDSVYFNIAEWDDEDTFRKALAEPEFRRRLDALTGLIKGEPHLSLPVRQGRAAQV	2	–
RslO1 monooxygenase, C-terminal His-tag recombinant protein (enzyme, Streptomyces bottropensis Gö C4/4, RslO1, FMN-dependent luciferase-like monooxygenase of the rishirilide (Rsl) gene cluster of Streptomyces bottropensis Gö C4/4; gene amplified from cosmid 4 and cloned between NdeI and XhoI of pET21a(+); predicted mass of the tagged protein 40.04 kDa; also called monooxygenase RslO1; FMN-dependent luciferase-like monooxygenase RslO1; source: E. coli BL21 (DE3) Star, pET21a(+), purified (Ni-NTA …)) MKFGINLFPTVGPAEKSAGQHFEESLRLAELADELGFHHVKTVEHYFHEYGGYSPDPVTFLAAAAARTRRVRLVTGAVLPVFTHPLKLAGKLAMLDNISQGRLDVGFGRAFLPDEFTAFEISMDESRARFDEGVEAVRRLWAEEDVVWEGTFHRFGPVTMLPRTWQRPHPRILVATAKTPASAEAAARAGHGVMLVPSINPREQVQKTLSLYRDAASAAGFKPTEEDIHMSYNCYLAEDGQEARQKGGQASERANRALASAVSAWRETRSADYPGYEKIVEKAGRGDFDRAVAERKALVGTPDEVRAAIDDIRGWFGDFTISLQVISGAMPFEESARTMRLFAEHLLPHYAAND	–	2
